Measured values taken from paper PMC2171568 (The Journal of Cell Biology, 2005).
Non-standard residues stand in square brackets, D forms with d. No end group written: not given here. pS = N[C@@H](COP(=O)(O)O)C(=O)O

How the values were obtained:
[1] = molecular target: T1, 14-3-3 Saccharomyces cerevisiae isoform BMH1, His-tagged (Saccharomyces cerevisiae, UniProt P29311 1-267); experiment: pull-down
T1 sequence (looked up): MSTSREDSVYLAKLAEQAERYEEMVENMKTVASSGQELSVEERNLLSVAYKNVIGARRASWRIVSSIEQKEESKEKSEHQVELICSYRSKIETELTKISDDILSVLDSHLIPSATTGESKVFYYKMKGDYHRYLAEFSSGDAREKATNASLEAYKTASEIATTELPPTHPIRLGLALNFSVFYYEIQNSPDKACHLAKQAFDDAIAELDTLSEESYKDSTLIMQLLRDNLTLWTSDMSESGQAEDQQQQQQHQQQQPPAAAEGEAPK

[2] = molecular target: T2, 14-3-3 Saccharomyces cerevisiae isoform BMH2, His-tagged (Saccharomyces cerevisiae, UniProt P34730 1-273); experiment: pull-down
T2 sequence (looked up): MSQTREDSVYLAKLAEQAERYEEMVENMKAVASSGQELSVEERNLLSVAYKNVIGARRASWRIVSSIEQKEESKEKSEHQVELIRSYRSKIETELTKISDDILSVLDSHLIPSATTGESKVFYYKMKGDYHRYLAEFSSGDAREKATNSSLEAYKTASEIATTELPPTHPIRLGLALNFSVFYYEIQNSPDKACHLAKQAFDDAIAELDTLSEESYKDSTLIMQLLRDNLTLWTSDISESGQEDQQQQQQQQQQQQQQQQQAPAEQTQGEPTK

B1: peptide ARAApSAPA (peptide)
peptide: ARAA[pS]APA
Q: What does the source list for B1?
A: binding result [1]: binds; binding result [2]: binds
